# Measured values taken from publication PMC10040874, “Burst kinetics and CNNM binding are evolutionarily conserved properties of phosphatases of regenerating liver” (The Journal of Biological Chemistry, 2023).
# T1: human PRL2 (human, UniProt Q12974 1-163)
# T1 construct: human phosphatase of regenerating liver 2 (PRL2); also called hPRL2; source: E. coli BL21(DE3), purified (TALON Co2+ resin, Superdex-75)
# T1 sequence: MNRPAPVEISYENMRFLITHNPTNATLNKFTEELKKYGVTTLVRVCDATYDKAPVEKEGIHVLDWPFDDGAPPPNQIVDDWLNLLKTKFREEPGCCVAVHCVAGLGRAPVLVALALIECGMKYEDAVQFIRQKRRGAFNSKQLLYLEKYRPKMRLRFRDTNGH
# B1: Drosophila melanogaster PRL (wild-type) (enzyme, D. melanogaster, UniProt O61722 1-176, looked up)
# chain: MSITMRQKDLRPAPALIEYKGMKFLITDRPSDITINHYIMELKKNNVNTVVRVCEPSYNTDELETQGITVKDLAFEDGTFPPQQVVDEWFEVLKDKYQQNPEACVAVHCVAGLGRAPVLVALALIELGLKYEAAVEMIRDKRRGAINAKQLSFLEKYKPKARLKHKNGHKNSCSVQ
# notes: the single PRL of D. melanogaster, cloned without the C-terminal prenylation site; also called Drosophila PRL; fly PRL; source: E. coli BL21(DE3), purified (TALON Co2+ resin, Superdex-75)
# B2: human CNNM3 CBS-pair domain (domain or fragment)
# chain: LRCRTVEDVLTPLEDCFMLDASTVLDFGVLASIMQSGHTRIPVYEEERSNIVDMLYLKDLAFVDPEDCTPLSTITRFYNHPLHFVFNDTKLDAVLEEFKRGKSHLAIVQKVNNEGEGDPFYEVLGLVTLEDVIEEIIRSEILDE
# notes: CBS-pair domain of human CNNM3; the ITC methods call all the titrated domains GST-CBS-pairs, the human one included; also called hCNNM3; GST-CBS-pair; source: E. coli BL21(DE3), purified; not shown: GST, N-terminal, kept
# B3: CBS-pair domain of a C. elegans CNNM protein (the one of two expressed that bound with 1 μM affinity) (domain or fragment)
# chain: LKIAVGAMEIADKVVKDVMTKIEDVFMLPDTTVLNAKTVMEIVKMGYTRIPVYQYGDKNNVTDMLFVKDLALLDPDDNFTVKTVCGYHKHPVKFVMNDTPLPNLLEAFKKGEGHLAMVKRLINTDDKHDPSYVLVGVVTLEDIVEEILQAEINDE
# modifications: Table S2: only CNNM1 (376-530) and CNNM3 (375-527) gave protein; assigning the 1 uM binder to CNNM1 is inferred from listing order (Figure 4 not in text)
# B4: CBS-pair domain of a C. elegans CNNM protein (the one of two expressed that bound with 13 μM affinity) (domain or fragment)
# chain: FKMVLGALELYDKTVAHAMTRYEDIFMLPHTLTLGAGMVTQILDMGYTRIPIYENDRKNIVALLFVKDLALLDPDDNHNVMKIASIYNHEVRRVLVDMPLRNMLEEFKRGEYHMALVERLVEQEDKDPIYELCGLITLEDIIEEIIQCEIIDE
# modifications: Assigning the 13 uM binder to CNNM3 is inferred from listing order (Figure 4 not in text)
# B5: Drosophila melanogaster CNNM CBS-pair domain, GST-tagged (domain or fragment, D. melanogaster)
# chain: VNIISGALELRKKTVADVMTHINDAFMLSLDALLDFETVSEIMNSGYSRIPVYDGDRKNIVTLLYIKDLAFVDTDDNTPLKTLCEFYQNPVHFVFEDYTLDIMFNQFKEGTIGHIAFVHRVNNEGDGDPFYETVGLVTLEDVIEELIQAEIVDE
# notes: CBS-pair domain of the Drosophila CNNM protein encoded by the uex (unextended) gene; also called Drosophila CNNM; dCNNM; source: E. coli BL21(DE3), purified (glutathione-Sepharose, Superdex-75); not shown: GST, N-terminal, kept
# Assays:
# Assay in all cases: ITC; VP-ITC, 20 °C, 20 mM Hepes pH 7.5, 100 mM NaCl, 5 mM TCEP; GST-CBS-pairs titrated with PRL; single site-binding model
# Conditions in all cases: both partners purified
# [1] = biological target: B5
# [2] = biological target: T1, human PRL2
# [3] = biological target: T2, Caenorhabditis elegans PRL (C. elegans)
# T2 construct: the single PRL of C. elegans, cloned without the C-terminal prenylation site; also called C. elegans PRL; source: E. coli BL21(DE3), purified (TALON Co2+ resin, Superdex-75)
# [4] = biological target: B1
binder,measurement,setting,value
B1,fold weaker affinity than the human complex,[1],20 fold
B2,binding result,[2],binds
B3,Kd,[3],1000 nM
B4,Kd,[3],13000 nM
B5,Kd,[4],350 nM
